Data: patent US10093713B2, “GIP-GLP-1 dual agonist compounds and methods” (priority 2013, dated 2018)

Molecular target: T1, human GIP receptor (human) (UniProt P48546)
T1 sequence: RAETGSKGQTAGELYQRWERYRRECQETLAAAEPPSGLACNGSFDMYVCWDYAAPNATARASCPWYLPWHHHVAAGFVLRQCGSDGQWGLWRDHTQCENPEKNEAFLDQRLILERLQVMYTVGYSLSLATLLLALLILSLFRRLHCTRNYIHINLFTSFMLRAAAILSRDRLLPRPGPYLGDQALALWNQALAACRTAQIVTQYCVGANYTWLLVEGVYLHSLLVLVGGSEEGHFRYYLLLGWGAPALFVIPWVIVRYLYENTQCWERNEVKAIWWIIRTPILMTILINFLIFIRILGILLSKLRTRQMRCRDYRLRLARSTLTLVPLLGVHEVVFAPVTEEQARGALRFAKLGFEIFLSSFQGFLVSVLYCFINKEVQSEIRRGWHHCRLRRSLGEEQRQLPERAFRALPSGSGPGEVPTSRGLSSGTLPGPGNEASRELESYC
Assay: cell-based or functional assay

EC50, hGIP-R cAMP: 3 pM
Substance: hGIP (from UniProt P09681 52-93) (ligand)
